Patent US20220372168A1

How the values were obtained:
[1] = target: Human FcγRIIa (R131) (human) (UniProt P12318); experiment: SPR (Biacore T200), His-tagged FcγR captured on anti-penta-His chip, antibody injected
[2] = target: Human FcγRIIa (H131) (human) (UniProt P12318); experiment: as above
[3] = target: Human FcγRIIIa (V176) (human) (UniProt P08637); experiment: as above
[4] = target: Human FcγRIIIa (F176) (human) (UniProt P08637); experiment: as above
Human FcγRIIb (human) [5] = target: Human FcγRIIb (human) (UniProt P31994); experiment: as above
Chain of Human FcγRIIb (human) (P31994 46-217 limits assumed): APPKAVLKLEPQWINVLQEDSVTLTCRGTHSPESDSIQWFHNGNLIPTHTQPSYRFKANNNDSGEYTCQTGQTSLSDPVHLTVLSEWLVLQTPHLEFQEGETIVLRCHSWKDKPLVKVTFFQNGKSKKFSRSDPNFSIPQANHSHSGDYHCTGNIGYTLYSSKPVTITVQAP

Human FcγRIIIb (human) = Human FcγRIIIb (human) (UniProt O75015); experiment: as above
Chain of Human FcγRIIIb (human) (O75015 17-200 limits assumed): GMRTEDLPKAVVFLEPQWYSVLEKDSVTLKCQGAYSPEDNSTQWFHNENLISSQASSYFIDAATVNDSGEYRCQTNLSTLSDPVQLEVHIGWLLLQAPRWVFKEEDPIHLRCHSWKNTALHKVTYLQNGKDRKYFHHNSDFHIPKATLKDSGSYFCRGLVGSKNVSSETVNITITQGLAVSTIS

Human FcγRI (human) = Human FcγRI (human) (UniProt P12314); experiment: as above
Chain of Human FcγRI (human) (P12314 16-288 limits assumed): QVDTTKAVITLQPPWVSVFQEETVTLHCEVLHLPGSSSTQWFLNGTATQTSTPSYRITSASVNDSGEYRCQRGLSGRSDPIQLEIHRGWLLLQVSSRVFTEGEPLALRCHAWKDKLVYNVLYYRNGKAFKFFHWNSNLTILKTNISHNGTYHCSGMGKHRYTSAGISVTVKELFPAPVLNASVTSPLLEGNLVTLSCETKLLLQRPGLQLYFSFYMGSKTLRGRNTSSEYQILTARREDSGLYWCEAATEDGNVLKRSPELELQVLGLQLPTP

[6] = target: Human FcγRIIa (R131) (human) (UniProt P12318); experiment: SPR (Biacore T200), His-tagged FcγR captured on anti-penta-His chip, kinetic or steady-state fit
[7] = target: Human FcγRIIa (H131) (human) (UniProt P12318); experiment: as above
Human FcγRIIb (human) [8] = target: Human FcγRIIb (human) (UniProt P31994); experiment: as above

Chain of Human FcγRIIa (H131) (human) (P12318 36-218 limits assumed): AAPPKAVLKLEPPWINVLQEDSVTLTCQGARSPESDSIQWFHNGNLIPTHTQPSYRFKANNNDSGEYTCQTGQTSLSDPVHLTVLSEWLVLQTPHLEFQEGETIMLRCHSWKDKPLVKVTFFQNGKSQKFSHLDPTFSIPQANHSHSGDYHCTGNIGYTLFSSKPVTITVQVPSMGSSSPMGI
Chain of Human FcγRIIa (R131) (human) (P12318 36-218 H167R limits assumed): as the sequence (P12318 36-218 limits assumed) above, with H132R counted along it
Chain of Human FcγRIIIa (V176) (human) (P08637 17-208 F176V limits assumed): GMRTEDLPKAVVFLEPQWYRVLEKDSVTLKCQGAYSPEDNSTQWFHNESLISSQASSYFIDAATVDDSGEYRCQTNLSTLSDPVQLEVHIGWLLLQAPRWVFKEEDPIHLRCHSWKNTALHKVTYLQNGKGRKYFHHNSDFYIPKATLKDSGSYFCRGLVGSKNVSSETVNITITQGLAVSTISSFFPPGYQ
Chain of Human FcγRIIIa (F176) (human) (P08637 17-208 limits assumed): as the sequence (P08637 17-208 F176V limits assumed) above, with V160F counted along it

binding signal (RU) [1]: 340 RU
binding signal (RU) [2]: 419 RU
binding signal (RU) [3]: 34 RU
binding signal (RU) [4]: 6 RU
binding signal (RU) (Human FcγRIIb (human) [5]): 226 RU
binding signal (RU) (Human FcγRIIIb (human)): -8 RU
binding signal (RU) (Human FcγRI (human)): 36 RU
Kd [6]: 1.32 µM
Kd [7]: 1.61 µM
Kd (Human FcγRIIb (human) [8]): 12.3 µM
B1: mAb3 (antibody, part only; not given: variable domains, not shown: another chain or arm of the molecule)
Fc: ESKYGPPCPPCPAPPVAGPSVFLFPPKPKDTLMISRTPEVTCVVVDVSQEDPEVQFNWYVDGVEVHNAKTKPREEQFNSTYRVVSVLTVLHQDWLNGKEYKCKVSNKGLPSSIEKTISKAKGQPREPQVYTLPPSQEEMTKNQVSLTCLVKGFYPSDIAVEWESNGQPENNYKTTPPVLDSDGSFFLYSRLTVDKSRWQEGNVFSCSVMHEALHNHYTQKSLSLSLGK
